Reference: the nanobody polyreactivity screen of Harvey et al. (2022)

test: yeast display, Sf9 membrane polyspecificity reagent, FACS + sequencing; frameworks hold sequencing errors
Procedure, shortened: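 Nanobodies came from a synthetic yeast display library in Saccharomyces cerevisiae BJ5465, induced with galactose for 36–48 hours and stained for 1 hour at 4 °C with 10% biotinylated, detergent-solubilized Sf9 membrane reagent. Cells were enriched on streptavidin microbeads and then FACS-sorted, with low and high (top ~1%) gates set on anti-HA fluorescence for expression and streptavidin fluorescence for reagent binding. Each polyreactivity label reflects the gate a clone came from. Genes were amplified by colony PCR, sequenced by MiSeq 2 × 250 and filtered by CDR length.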

Row | Sequence | polyreactivity (PSR sort gate)
1 | QVQLVESGGGLVQAGGRLRLSCAASGFIFSNYAMGWYRQAPGKERELVAAISKSGGGTSYADSVKGRFTISRDTAMNTVYLQMNSLKPEDPAGYYCAARVRQIRVDYWGQGTQVTVSS | high polyreactivity
2 | QVQLVESGGGLVQAGGRLRLSCAASGFIFYYNTMGWYRQAPGKERELVAAISSGGRTYYADSVKGRFTISRDNAKNTVYLQMNSLKPEDTAVYYCNVVTYVKYGYWGQGTQVTVSS | high polyreactivity
3 | QVQLVESGGGLVQAGGRLRLSCAASGFIIVYYAAMGWYRQAPGKERELVAAISSRDDSTTYADSVKGRFTISRDNAKNTVYLQMNSLKPEDTAVYYCNADLGGFYYVYAYNYWGQGTQVTVSS | low polyreactivity
4 | QVQLVESGGGLVQAGGRLRLSCAASGFSFSLYGMGWYRQAPGKERELVAAIRSGGSPNYADSVKGRFTISRDNAKNTVYLQMNSLKPEDTAVYYGATDIHSVHNNRDKHDYDYWGQGTQETVSS | low polyreactivity
5 | QVQLVESGGGLVQAGGRLRLSCAASGFTFNWYDMGWYRQAPGKERELVATISTGGGTNYADSVKGRFTITRYNAKNTVYLQMNSLKPEDSAVYYCAADGSAGYLWGYDFEGVYWGQGTQVTVSS | high polyreactivity
6 | QVQLVESGGGLVQAGGRLRLSCAASGFTFRRYTMGWYRQAPGKERELVAVISASGGSTYYADSEKGRFTISRDNAKNTVYLQMNSLKPEDTAVYYCNAVGTPYGLDEYWGQGTQVTVSS | high polyreactivity
7 | QVQLVESGGGLVQAGGRLRLSCAASGFTFVRNTMGWYRQAPGKDRELVAAISRSGGSTYYADSVKGRFTISRDNAKNTVYLQMNSLKPEDTAVYYCNAYRYLHYDWGQGTQVTVSS | high polyreactivity
8 | QVQLVESGGGLVQAGGRLRLSCAASGFTIPYKAMGWYRQAPGKERELVAAISRSGTRTYYADSVKGRFTISRDNAKNTLYIQMNSLKPEDTAVYYCAKDTIGGASPHYYWGKGTQVTVSS | high polyreactivity
9 | QVQLVESGGGLVQAGGRLRLSCAASGITFTYYSMGGYRQAPGKERELVAAITDDGNTNYADSVKGRFTISRDNAKNTVYLQMNSLIPEDTAVYYCAADLLGIPDYEYWGQGTQVTVSS | low polyreactivity
10 | QVQLVESGGGLVQAGGRLRLSCAASGNTFDYYAMGWYRPAPGKERELVAAITRGGSTNYADSVKGRFTISRDNAKNTVYLQMNSLKPEDTAVYYCAAEQRAPRFADYDYWGQGTQVTVSS | low polyreactivity
11 | QVQLVESGGGLVQAGGRLRLSCAASGRIFGYYAIGWYRQAPGKERELVARISRGGSTYYADSVKGRFTISRDNAKNTVYLQMNSLKPEETAVYSCAATRSGYTSYTDDSGGQGTQVTVSS | high polyreactivity
12 | QVQLVESGGGLVQAGGRLRLSCAASGRIFKWYPMGLYRQAPGKERELVAAITSGGSTYYADSVKGRFTISRDNAKNTVYLQMNSLNPEDTAVYYCAAPVYLYGTVGRGDYWGQGTQVTVSS | high polyreactivity
13 | QVQLVESGGGLVQAGGRLRLSCAASGRIFRWNPMGWYRPAPGIERELVAAISASGGRTNYADSVKGRFTISRDNAKNTVYLQMKSLKPEDTAVYYCAAGPVYYYVPIGYDYWGQGTQVTVSS | high polyreactivity
14 | QVQLVESGGGLVQAGGRLRLSCAASGRIFSDYAMGWYRQAPGKERELVAVITRGGDNTHYADSVKGRFSISRDNAKNTVYLQMNSLKAEDTAVYYCAAGFVYFRLRRYFWRDYCGQGTQVTVSS | low polyreactivity
15 | QVQLVESGGGLVQAGGRLRLSCAASGRIFSYNAMGWYRQAPGKERELVAGITSGGRTYYADSVKGRFTISRDNAKNTVYLLIYSLKPEDTAVYYCGARYVPARSGYYYWGQGTQVTVSS | high polyreactivity
16 | QVQLVESGGGLVQAGGRLRLSCAASGRIFYWNVMGWYRPAPGKERELVAAISSSGASTSYADSVKGRFTISRDNAKNTVYLQMNSLKPEDTAVYYCAARTRRNYRQYNYWGQGTQVTVSS | high polyreactivity
17 | QVQLVESGGGLVQAGGRLRLSCAASGRILRWYTMGWYRQAPGKERELVAAITSRGGSTYYADSVKGRFTISRDNAKNTVYLQMNSLKPEDTAVYYCAAVSWYTRLTYYYWGQGTQVTVSS | high polyreactivity
